In the supplement of paper PMC10567573:

B1: BEX1 (parent)
chain: EENMERIGEEVRQLMEKLREKQLS
B2: TMEM106C (parent)
chain: TVPEILVHNIVIFMRTSVKISYIG

Variants of: B1
Test: protein stability index of a GFP-peptide fusion (GPS, HEK-293T) (PSI 1-6); higher = more stable
Conditions: c terminus: a fixed tail appended
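Note: lentivirally expressed fusions sorted by FACS into six bins by GFP to DsRed ratio, PSI derived from sequencing read proportions per bin multiplied by bin number.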

Row | Variant | protein stability index
1 | L18P | 5.86
2 | L18M | 4.59
3 | L18K | 5.26
4 | L18I | 4.48
5 | K17I | 3.76
6 | K17Q | 4.38
7 | K17D | 4.76
8 | R12V | 5.27
9 | R12I | 4.22
10 | R12L | 3.77
11 | R12S | 4.85
12 | R12H | 5.45
13 | R12N | 4.1
14 | R12K | 4.78
15 | R12P | 5.1
16 | R12C | 4.43
17 | N3R | 3.79
18 | N3A | 3.99
19 | N3T | 3.84
20 | N3F | 4.74
21 | N3W | 4.32
22 | N3C | 3.89
23 | N3Q | 3.94

Row | Variant | protein stability index
24 | M15Y | 4.89
25 | M15P | 5.5
26 | M15N | 3.02
27 | I7M | 4.83
28 | I7Q | 5.33
29 | I7C | 4.87
30 | I7K | 4.23
31 | I7H | 5.86
32 | I7L | 4.74
33 | I7S | 5.17
34 | I7R | 5.16
35 | I7G | 4.97
36 | E1Q | 4.41
37 | E1N | 4.31
38 | E1D | 2.37
39 | E1I | 4.77
40 | E1S | 4
41 | E1T | 4.56
42 | E1R | 3.55
43 | G8H | 4.09
44 | G8T | 4.55
45 | G8Q | 4.36
46 | G8K | 4.32

Row | Variant | protein stability index
47 | G8R | 4.18
48 | G8I | 3.62
49 | G8S | 4.47
50 | G8A | 3.25
51 | G8E | 4.04
52 | V11D | 5.92
53 | V11F | 4.25
54 | V11C | 4.19
55 | V11P | 5.37
56 | V11G | 5.64
57 | V11L | 4.68
58 | V11N | 5.46
59 | V11T | 4.5
60 | R19H | 5.32
61 | R19A | 4.72
62 | R19T | 4.76
63 | R19N | 5.13
64 | R19K | 4.74
65 | R19F | 3.95
66 | R19Y | 3.92
67 | R19L | 2.82
68 | R19S | 4.21
69 | R19E | 5.31

Row | Variant | protein stability index
70 | R19P | 5.54
71 | E5A | 4.28
72 | E5W | 3.31
73 | E5V | 3.3
74 | E5R | 4.33
75 | E5L | 3.89
76 | S24I | 3.97
77 | S24Q | 4.95
78 | S24D | 4.91
79 | S24V | 4.67
80 | S24G | 4.78
81 | S24K | 3.54
82 | S24W | 3.99
83 | S24C | 4.8
84 | S24Y | 3.91
85 | S24T | 4.29
86 | S24F | 4.32
87 | M4H | 5.09
88 | M4Y | 4.55
89 | M4I | 4.28
90 | M4Q | 3.58
91 | M4T | 5.03
92 | M4D | 4.81

Row | Variant | protein stability index
93 | M4P | 5.96
94 | M4R | 4.75
95 | M4G | 5.48
96 | Q13E | 5.38
97 | Q13W | 3.37
98 | Q13G | 5.2
99 | Q13T | 3.45
100 | Q13M | 4.5
101 | Q13P | 4.79
102 | Q13C | 4.53
103 | L23T | 5.19
104 | L23S | 3.89
105 | L23Y | 5.23
106 | L23Q | 4.97
107 | L23H | 4.65
108 | L23F | 4.58
109 | L23M | 4.1
110 | L23C | 4.73
111 | L23V | 3.88
112 | R6I | 3.92
113 | R6T | 4.85
114 | R6Y | 4.57
115 | R6C | 4.25

Row | Variant | protein stability index
116 | R6N | 3.84
117 | R6F | 3.72
118 | R6W | 4.69
119 | R6P | 5.03
120 | R6A | 4.94
121 | R6G | 5.28
122 | E2Y | 3.72
123 | E2P | 4.34
124 | E2S | 4.23
125 | E2I | 4
126 | E2K | 3.64
127 | E2C | 4.07
128 | E2H | 4.37
129 | E2R | 4.55
130 | E2W | 4.53
131 | Q22S | 3.92
132 | Q22M | 1.08
133 | Q22D | 4.73
134 | Q22T | 3.59
135 | Q22C | 2.46
136 | Q22W | 2.28
137 | E10Y | 4.13
138 | E10L | 4.63

Row | Variant | protein stability index
139 | E10S | 4.31
140 | E10P | 4.75
141 | E10R | 2.79
142 | E10F | 2.91
143 | E10A | 3.09
144 | E10W | 3.67
145 | E10M | 3.51
146 | E10T | 3.96
147 | E20W | 2.19
148 | E20F | 2.75
149 | E20S | 4.57
150 | E20R | 4.46
151 | E20L | 4.29
152 | E9K | 4.2
153 | E9V | 4.07
154 | E9G | 4.67
155 | E9P | 4.98
156 | E9Y | 4.17
157 | E9N | 4.02
158 | E9I | 4.39
159 | L14Q | 5.03
160 | L14Y | 4.58
161 | L14H | 5.03

Row | Variant | protein stability index
162 | L14W | 4.7
163 | L14M | 3.38
164 | L14R | 5.59
165 | L14I | 4.06
166 | L14N | 5.76
167 | K21Q | 4.53
168 | K21A | 4.11
169 | K21Y | 3.04
170 | K21H | 3.15
171 | K21F | 4.64
172 | K21T | 5.02
173 | K21C | 1.67
174 | K21D | 4.97
175 | K21I | 3.7
176 | E16C | 3.87
177 | E16K | 4.32
178 | E16H | 4.49
179 | E16V | 3.31
180 | E16R | 3.89
181 | E16N | 4.45
182 | E16P | 2.69

Variants of: B2
Test: as above
Conditions: c terminus: a fixed tail appended

Row | Variant | protein stability index
183 | V18S | 3.02
184 | V18Y | 4.01
185 | V18W | 2.45
186 | V18N | 3.44
187 | V18Q | 3.31
188 | V18K | 2.77
189 | V18L | 4.24
190 | V18P | 2.92
191 | V18M | 3.05
192 | V18A | 4.48
193 | V18T | 3.66
194 | V18E | 2.77
195 | V18F | 2.33
196 | V18H | 2.13
197 | V18G | 2.88
198 | V18D | 2.15
199 | Y22G | 2.47
200 | Y22K | 2.86
201 | Y22L | 2.73
202 | Y22S | 2.31
203 | Y22Q | 3.85
204 | Y22M | 3.99
205 | Y22V | 4.14
206 | Y22W | 2.65
207 | Y22R | 3.04
208 | Y22H | 2.67

Row | Variant | protein stability index
209 | Y22I | 4.35
210 | Y22P | 3
211 | Y22T | 2.84
212 | Y22A | 3.58
213 | Y22N | 3.33
214 | Y22C | 2.5
215 | Y22D | 2.46
216 | Y22F | 2.35
217 | S17D | 2.48
218 | S17G | 2.1
219 | S17W | 3.7
220 | S17L | 2.29
221 | S17E | 3.3
222 | S17H | 2.76
223 | S17I | 2.2
224 | S17Q | 3.81
225 | S17K | 4.27
226 | S17C | 3.88
227 | S17T | 3.17
228 | S17R | 3.66
229 | S17N | 3.88
230 | S17A | 4.19
231 | S17M | 2.69
232 | S17Y | 3
233 | S17F | 4.33
234 | I20N | 1

Row | Variant | protein stability index
235 | I20F | 3.1
236 | I20L | 3.56
237 | I20Y | 3.86
238 | I20K | 3.3
239 | I20W | 2.88
240 | I20H | 4.04
241 | I20D | 3.71
242 | I20C | 3.79
243 | I20T | 3.24
244 | I20Q | 4.14
245 | I20R | 2.13
246 | I20A | 2.52
247 | I20P | 3.39
248 | I20G | 3.25
249 | I20S | 3.33
250 | I20V | 1.4
251 | I20E | 3.72
252 | R15N | 3.2
253 | R15M | 3.77
254 | R15V | 3.67
255 | R15P | 2.47
256 | R15K | 3.46
257 | R15Q | 2.73
258 | R15T | 2.69
259 | R15S | 3.18
260 | R15L | 3.26

Row | Variant | protein stability index
261 | S21K | 2.53
262 | S21G | 1.99
263 | S21F | 3.13
264 | S21H | 2.81
265 | S21E | 3.24
266 | S21D | 2.53
267 | S21Q | 2.04
268 | S21W | 1.95
269 | S21L | 3.4
270 | S21T | 3.42
271 | S21I | 3.51
272 | S21C | 2.77
273 | S21M | 3.51
274 | K19Y | 3.12
275 | K19A | 3.17
276 | K19I | 3.18
277 | K19M | 1.77
278 | K19C | 4.43
279 | K19P | 2.88
280 | K19L | 3.2
281 | K19N | 3.38
282 | K19D | 3.61
283 | K19E | 4.38
284 | K19Q | 3.02
285 | K19S | 3.4
286 | K19F | 3.24

Row | Variant | protein stability index
287 | K19H | 2.62
288 | K19G | 2.77
289 | G24C | 2.8
290 | G24W | 2.75
291 | G24T | 2.06
292 | G24M | 3.57
293 | G24V | 2.95
294 | G24F | 3.89
295 | G24Y | 2.61
296 | G24I | 3.38
297 | G24N | 3.8
298 | G24H | 2.84
299 | G24D | 2.27
300 | G24L | 2.82
301 | G24K | 2.98
302 | G24R | 3.06
303 | G24E | 3.36
304 | G24S | 3.61
305 | G24A | 2.22
306 | T16I | 1.93
307 | T16Q | 2.46
308 | T16E | 2.54
309 | T16S | 2.54
310 | T16A | 1.5
311 | T16F | 3.06
312 | T16Y | 3.88

Row | Variant | protein stability index
313 | T16N | 2.98
314 | T16D | 2.97
315 | T16R | 2.5
316 | T16L | 3.11
317 | T16W | 2.85
318 | I23T | 3.01
319 | I23N | 3.26
320 | I23D | 3.85
321 | I23W | 3.22
322 | I23V | 2.4
323 | I23G | 2.88
324 | I23A | 3.15
325 | I23M | 3.06
326 | I23S | 3.05
327 | I23H | 1.77
328 | I23P | 3.49
329 | I23R | 2.81
330 | I23K | 4.25
331 | I23Y | 3.25
332 | I23C | 2.41
333 | I23Q | 4.15
334 | I23F | 3.86
